Data published in patent publication US20170015742A1 (published 2017).
One block for each binder: values may come before it.

Legend:
PDGF-BB = molecular target: T1, PDGF-BB (human, UniProt P01127 82-190, limits assumed); experiment: Biacore SPR; DVD-Ig captured on anti-human Fc, antigen injected
T1 construct: also called human PDGF-BB; hPDGF-BB
Experimental: (§1) For example, approximately 9000 RU of goat anti-human Fc specific polyclonal antibody (Thermo Fisher Scientific Inc., Rockford, Ill.) diluted in 10 mM sodium acetate (pH 4.5) is directly immobilized across a CM5 research grade biosensor chip using a standard amine coupling kit according to manufacturer's instructions and procedures at 25 μg/ml. Unreacted moieties on the biosensor surface were blocked with ethanolamine. For kinetic analysis, rate equations derived from the 1:1 Langmuir binding model were fitted simultaneously to multiple antigen injections (using global fit analysis) with the use of Scrubber 2 (BioLogic Software), Biacore Biaevaluation 4.0.1 software or Biacore T100 Evaluation software. Purified antibodies or DVD-Ig molecules were diluted in running buffer for capture across goat anti-human Fc reaction surfaces. Antibodies or DVD-Ig molecules to be captured as a ligand (1 μg/ml) were injected over reaction matrices at a flow rate of 10 μl/minute. During the assay, all measurements were referenced against the capture surface alone (i.e., with no captured antibody or DVD-Ig molecule). […] The equilibrium dissociation constant KD (M) of the reaction between antibodies and the target antigen was then calculated from the kinetic rate constants by the following formula: KD=Koff/Kₒₙ. Binding was recorded as a function of time and kinetic rate constants were calculated.

VEGF-A = molecular target: T2, VEGF-A (human, UniProt P15692 207-395); experiment: as above
T2 construct: also called hVEGF165
Experimental: as §1

T2 sequence (P15692 other isoform, or with tags, fused parts or gaps limits assumed): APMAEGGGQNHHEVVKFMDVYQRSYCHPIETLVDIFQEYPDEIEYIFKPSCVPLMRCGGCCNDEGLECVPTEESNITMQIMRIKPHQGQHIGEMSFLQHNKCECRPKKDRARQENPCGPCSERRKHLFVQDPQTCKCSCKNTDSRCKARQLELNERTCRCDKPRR
T1 sequence (P01127 82-190 limits assumed): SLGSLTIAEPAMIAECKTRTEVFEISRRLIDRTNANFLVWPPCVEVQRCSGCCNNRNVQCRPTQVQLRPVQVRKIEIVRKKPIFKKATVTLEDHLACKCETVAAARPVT

- Kd (PDGF-BB): 0.015 nM
- kon (PDGF-BB): 1.7e+07 M⁻¹ s⁻¹
- Kd (VEGF-A): 0.01 nM
- kon (VEGF-A): 6.2e+06 M⁻¹ s⁻¹
B1: 4G8.3-SL-9E8.4E (PR-1575834) (bispecific antibody, human IgG1, kappa, L234A L235A)
heavy: EVQLVQSGSELKKPGASVKVSCKASGYTFTNYGMYWVRQAPGQGLEWMGWINTETGKPTYADDFKGRFVFSLDTSVSTAYLQISSLKAEDTAVYYCARTNYYYRSYIFYFDYWGQGTMVTVSSASTKGPEVTLRESGPALVKPTQTLTLTCTFSGFSLSTYGMGVGWIRQPPGKALEWLANIWWDDDKYYNPSLKNRLTISKDTSKNQVVLTMTNMDPVDTATYYCARIESIGTTYSFDYWGQGTMVTVSSASTKGPSVFPLAPSSKSTSGGTAALGCLVKDYFPEPVTVSWNSGALTSGVHTFPAVLQSSGLYSLSSVVTVPSSSLGTQTYICNVNHKPSNTKVDKKVEPKSCDKTHTCPPCPAPEAAGGPSVFLFPPKPKDTLMISRTPEVTCVVVDVSHEDPEVKFNWYVDGVEVHNAKTKPREEQYNSTYRVVSVLTVLHQDWLNGKEYKCKVSNKALPAPIEKTISKAKGQPREPQVYTLPPSREEMTKNQVSLTCLVKGFYPSDIAVEWESNGQPENNYKTTPPVLDSDGSFFLYSKLTVDKSRWQQGNVFSCSVMHEALHNAYTQKSLSLSPGK
light: DTVLTQSPATLSLSPGERATLSCRASESVSTHMHWYQQKPGQAPRLLIYGASNLESGVPARFSGSGSGTDFTLTISSLEPEDFAVYFCQQSWNDPFTFGQGTKLEIKRTVAAPSVFIFPPEFVLTQSPGTLSLSPGERATLSCERSSGDIGESYVSWYQQKPGQAPRLVIYADDQRPSGIPDRFSGSGSGTDFTLTISRLEPEDFAVYYCQSYDINIDIVFGGGTKVEIKRTVAAPSVFIFPPSDEQLKSGTASVVCLLNNFYPREAKVQWKVDNALQSGNSQESVTEQDSKDSTYSLSSTLTLSKADYEKHKVYACEVTHQGLSSPVTKSFNRGEC
notes: DVD-Ig: outer hBDB-4G8.3 (VEGF), inner hBDI-9E8.4E (PDGF), linkers HG-short/LK-long; Human IgG1 L234A, L235A, H435A with kappa

- Kd (PDGF-BB): 0.02 nM
- kon (PDGF-BB): 1.3e+07 M⁻¹ s⁻¹
- Kd (VEGF-A): 0.013 nM
- kon (VEGF-A): 6.1e+06 M⁻¹ s⁻¹
B2: 4G8.3-GS-9E8.4E (PR-1575832) (bispecific antibody, human IgG1, kappa, L234A L235A)
heavy: EVQLVQSGSELKKPGASVKVSCKASGYTFTNYGMYWVRQAPGQGLEWMGWINTETGKPTYADDFKGRFVFSLDTSVSTAYLQISSLKAEDTAVYYCARTNYYYRSYIFYFDYWGQGTMVTVSSGGGGSGGGGSEVTLRESGPALVKPTQTLTLTCTFSGFSLSTYGMGVGWIRQPPGKALEWLANIWWDDDKYYNPSLKNRLTISKDTSKNQVVLTMTNMDPVDTATYYCARIESIGTTYSFDYWGQGTMVTVSSASTKGPSVFPLAPSSKSTSGGTAALGCLVKDYFPEPVTVSWNSGALTSGVHTFPAVLQSSGLYSLSSVVTVPSSSLGTQTYICNVNHKPSNTKVDKKVEPKSCDKTHTCPPCPAPEAAGGPSVFLFPPKPKDTLMISRTPEVTCVVVDVSHEDPEVKFNWYVDGVEVHNAKTKPREEQYNSTYRVVSVLTVLHQDWLNGKEYKCKVSNKALPAPIEKTISKAKGQPREPQVYTLPPSREEMTKNQVSLTCLVKGFYPSDIAVEWESNGQPENNYKTTPPVLDSDGSFFLYSKLTVDKSRWQQGNVFSCSVMHEALHNAYTQKSLSLSPGK
light: DTVLTQSPATLSLSPGERATLSCRASESVSTHMHWYQQKPGQAPRLLIYGASNLESGVPARFSGSGSGTDFTLTISSLEPEDFAVYFCQQSWNDPFTFGQGTKLEIKRGGSGGGGSGEFVLTQSPGTLSLSPGERATLSCERSSGDIGESYVSWYQQKPGQAPRLVIYADDQRPSGIPDRFSGSGSGTDFTLTISRLEPEDFAVYYCQSYDINIDIVFGGGTKVEIKRTVAAPSVFIFPPSDEQLKSGTASVVCLLNNFYPREAKVQWKVDNALQSGNSQESVTEQDSKDSTYSLSSTLTLSKADYEKHKVYACEVTHQGLSSPVTKSFNRGEC
notes: DVD-Ig: outer hBDB-4G8.3 (VEGF), inner hBDI-9E8.4E (PDGF), linkers GS-H10/GS-L10; Human IgG1 L234A, L235A, H435A with kappa

- Kd (PDGF-BB): 0.0083 nM
- kon (PDGF-BB): 2.7e+07 M⁻¹ s⁻¹
- Kd (VEGF-A): 0.47 nM
- kon (VEGF-A): 250000 M⁻¹ s⁻¹
B3: 9A8.12-SL-9E8.4E (PR-1577166) (bispecific antibody, human IgG1, kappa, L234A L235A)
heavy: EVQLVQSGAEVKKPGASVKVSCKASGYTFTNYGMYWVRQAPGQGLEWMGWINTETGKPIYADDFKGRVTMTTDTSTSTAYMELRSLRSDDTAVYYCARVDYDGSFWFAYWGQGTLVTVSSASTKGPEVTLRESGPALVKPTQTLTLTCTFSGFSLSTYGMGVGWIRQPPGKALEWLANIWWDDDKYYNPSLKNRLTISKDTSKNQVVLTMTNMDPVDTATYYCARIESIGTTYSFDYWGQGTMVTVSSASTKGPSVFPLAPSSKSTSGGTAALGCLVKDYFPEPVTVSWNSGALTSGVHTFPAVLQSSGLYSLSSVVTVPSSSLGTQTYICNVNHKPSNTKVDKKVEPKSCDKTHTCPPCPAPEAAGGPSVFLFPPKPKDTLMISRTPEVTCVVVDVSHEDPEVKFNWYVDGVEVHNAKTKPREEQYNSTYRVVSVLTVLHQDWLNGKEYKCKVSNKALPAPIEKTISKAKGQPREPQVYTLPPSREEMTKNQVSLTCLVKGFYPSDIAVEWESNGQPENNYKTTPPVLDSDGSFFLYSKLTVDKSRWQQGNVFSCSVMHEALHNAYTQKSLSLSPGK
light: DTQLTQSPSSLSASVGDRVTITCRASESVSTVIHWYQQKPGKQPKLLIHGASNLESGVPSRFSGSGSGTDFTLTISSLQPEDFATYFCQQHWNDPPTFGQGTKLEIKRTVAAPSVFIFPPEFVLTQSPGTLSLSPGERATLSCERSSGDIGESYVSWYQQKPGQAPRLVIYADDQRPSGIPDRFSGSGSGTDFTLTISRLEPEDFAVYYCQSYDINIDIVFGGGTKVEIKRTVAAPSVFIFPPSDEQLKSGTASVVCLLNNFYPREAKVQWKVDNALQSGNSQESVTEQDSKDSTYSLSSTLTLSKADYEKHKVYACEVTHQGLSSPVTKSFNRGEC
notes: DVD-Ig: outer hBEW-9A8.12 (VEGF), inner hBDI-9E8.4E (PDGF), linkers HG-short/LK-long; Human IgG1 L234A, L235A, H435A with kappa

- Kd (PDGF-BB): 0.0081 nM
- kon (PDGF-BB): 3.3e+07 M⁻¹ s⁻¹
- Kd (VEGF-A): 0.18 nM
- kon (VEGF-A): 770000 M⁻¹ s⁻¹
B4: 9A8.12-GS-9E8.4E (PR-1577165) (bispecific antibody, human IgG1, kappa, L234A L235A)
heavy: EVQLVQSGAEVKKPGASVKVSCKASGYTFTNYGMYWVRQAPGQGLEWMGWINTETGKPIYADDFKGRVTMTTDTSTSTAYMELRSLRSDDTAVYYCARVDYDGSFWFAYWGQGTLVTVSSGGGGSGGGGSEVTLRESGPALVKPTQTLTLTCTFSGFSLSTYGMGVGWIRQPPGKALEWLANIWWDDDKYYNPSLKNRLTISKDTSKNQVVLTMTNMDPVDTATYYCARIESIGTTYSFDYWGQGTMVTVSSASTKGPSVFPLAPSSKSTSGGTAALGCLVKDYFPEPVTVSWNSGALTSGVHTFPAVLQSSGLYSLSSVVTVPSSSLGTQTYICNVNHKPSNTKVDKKVEPKSCDKTHTCPPCPAPEAAGGPSVFLFPPKPKDTLMISRTPEVTCVVVDVSHEDPEVKFNWYVDGVEVHNAKTKPREEQYNSTYRVVSVLTVLHQDWLNGKEYKCKVSNKALPAPIEKTISKAKGQPREPQVYTLPPSREEMTKNQVSLTCLVKGFYPSDIAVEWESNGQPENNYKTTPPVLDSDGSFFLYSKLTVDKSRWQQGNVFSCSVMHEALHNAYTQKSLSLSPGK
light: DTQLTQSPSSLSASVGDRVTITCRASESVSTVIHWYQQKPGKQPKLLIHGASNLESGVPSRFSGSGSGTDFTLTISSLQPEDFATYFCQQHWNDPPTFGQGTKLEIKRGGSGGGGSGEFVLTQSPGTLSLSPGERATLSCERSSGDIGESYVSWYQQKPGQAPRLVIYADDQRPSGIPDRFSGSGSGTDFTLTISRLEPEDFAVYYCQSYDINIDIVFGGGTKVEIKRTVAAPSVFIFPPSDEQLKSGTASVVCLLNNFYPREAKVQWKVDNALQSGNSQESVTEQDSKDSTYSLSSTLTLSKADYEKHKVYACEVTHQGLSSPVTKSFNRGEC
notes: DVD-Ig: outer hBEW-9A8.12 (VEGF), inner hBDI-9E8.4E (PDGF), linkers GS-H10/GS-L10; Human IgG1 L234A, L235A, H435A with kappa
